Key:
[1] = target: SHP2-C SH2; experiment: SH2 binding enrichment of the phosphorylated peptide, bacterial display (enrichment ratio); higher = better substrate or ligand; peptides without Tyr show the background
[2] = target: c-Src SH2; experiment: as above
[3] = target: Grb2 SH2 (UniProt P62993); experiment: as above
[4] = target: EPHB1 (UniProt P54762); experiment: phosphorylation enrichment, bacterial display (enrichment ratio); higher = better substrate or ligand; peptides without Tyr show the background
[5] = target: Hck (UniProt P08631); experiment: as above
Hck, sequence (P08631 whole entry, looked up): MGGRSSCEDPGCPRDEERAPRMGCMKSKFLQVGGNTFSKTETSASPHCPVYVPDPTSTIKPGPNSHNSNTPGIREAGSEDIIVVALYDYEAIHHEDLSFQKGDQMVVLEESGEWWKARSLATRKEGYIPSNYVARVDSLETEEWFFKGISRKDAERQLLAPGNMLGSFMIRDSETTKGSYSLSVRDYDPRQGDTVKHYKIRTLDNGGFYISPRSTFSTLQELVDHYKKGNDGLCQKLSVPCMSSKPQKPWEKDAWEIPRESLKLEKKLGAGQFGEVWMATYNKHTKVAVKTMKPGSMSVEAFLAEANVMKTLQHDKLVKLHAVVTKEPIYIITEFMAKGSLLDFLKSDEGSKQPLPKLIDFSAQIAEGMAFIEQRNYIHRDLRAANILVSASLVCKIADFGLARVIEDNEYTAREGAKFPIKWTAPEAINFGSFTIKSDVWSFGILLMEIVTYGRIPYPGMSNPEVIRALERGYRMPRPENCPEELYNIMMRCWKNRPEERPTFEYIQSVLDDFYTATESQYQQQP

[6] = target: Jak2 (UniProt O60674); experiment: as above
Jak2, sequence (O60674 whole entry, looked up): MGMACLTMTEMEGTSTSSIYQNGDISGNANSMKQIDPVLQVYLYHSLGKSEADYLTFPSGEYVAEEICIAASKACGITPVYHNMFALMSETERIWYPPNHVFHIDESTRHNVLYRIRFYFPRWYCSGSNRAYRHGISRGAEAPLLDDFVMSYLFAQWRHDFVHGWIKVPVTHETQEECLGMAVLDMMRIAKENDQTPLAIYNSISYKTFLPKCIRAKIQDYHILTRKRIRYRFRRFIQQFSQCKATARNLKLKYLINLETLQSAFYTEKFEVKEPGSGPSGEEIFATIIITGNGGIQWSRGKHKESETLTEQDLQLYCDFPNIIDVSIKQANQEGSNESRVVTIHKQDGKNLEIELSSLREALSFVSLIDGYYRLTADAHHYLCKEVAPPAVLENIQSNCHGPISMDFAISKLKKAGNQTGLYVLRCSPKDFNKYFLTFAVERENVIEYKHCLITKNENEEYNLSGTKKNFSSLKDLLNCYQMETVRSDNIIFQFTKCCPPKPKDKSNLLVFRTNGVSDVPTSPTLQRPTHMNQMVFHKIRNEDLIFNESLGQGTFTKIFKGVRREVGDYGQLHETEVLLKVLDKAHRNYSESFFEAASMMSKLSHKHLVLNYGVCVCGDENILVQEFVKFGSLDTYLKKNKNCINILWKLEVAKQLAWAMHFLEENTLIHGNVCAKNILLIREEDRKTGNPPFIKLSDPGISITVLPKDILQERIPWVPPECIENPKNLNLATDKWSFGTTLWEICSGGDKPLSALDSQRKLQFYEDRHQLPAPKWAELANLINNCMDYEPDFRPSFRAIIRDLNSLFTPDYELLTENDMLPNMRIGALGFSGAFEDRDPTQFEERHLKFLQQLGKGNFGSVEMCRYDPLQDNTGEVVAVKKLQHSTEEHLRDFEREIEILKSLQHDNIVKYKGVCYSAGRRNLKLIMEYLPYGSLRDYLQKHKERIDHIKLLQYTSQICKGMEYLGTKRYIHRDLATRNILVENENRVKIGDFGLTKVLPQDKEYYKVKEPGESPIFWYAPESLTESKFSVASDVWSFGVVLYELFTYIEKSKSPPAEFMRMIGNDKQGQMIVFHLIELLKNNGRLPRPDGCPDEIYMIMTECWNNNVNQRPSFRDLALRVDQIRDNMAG

[7] = target: Fyn (UniProt P06241); experiment: as above
Fyn, sequence (P06241 whole entry, looked up): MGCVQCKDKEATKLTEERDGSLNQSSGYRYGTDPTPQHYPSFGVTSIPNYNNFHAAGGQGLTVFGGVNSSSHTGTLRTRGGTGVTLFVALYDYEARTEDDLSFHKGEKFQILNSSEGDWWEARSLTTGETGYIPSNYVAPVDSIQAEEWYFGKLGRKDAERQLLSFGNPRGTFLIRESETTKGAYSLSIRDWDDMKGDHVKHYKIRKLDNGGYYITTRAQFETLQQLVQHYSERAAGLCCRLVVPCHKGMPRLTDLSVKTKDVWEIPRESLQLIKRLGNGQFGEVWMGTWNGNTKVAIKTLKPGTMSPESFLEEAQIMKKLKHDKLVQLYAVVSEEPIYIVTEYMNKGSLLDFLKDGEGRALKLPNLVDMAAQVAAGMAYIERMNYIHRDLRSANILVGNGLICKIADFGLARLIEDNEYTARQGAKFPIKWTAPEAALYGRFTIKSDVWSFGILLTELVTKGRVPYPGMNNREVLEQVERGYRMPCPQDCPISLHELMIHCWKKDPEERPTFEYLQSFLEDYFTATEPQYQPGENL

[8] = target: EPHB2 (UniProt P29323); experiment: as above
[9] = target: FGFR3 (UniProt P22607); experiment: as above
[10] = system: c-Abl (mouse); experiment: as above
[11] = system: AncSZ; experiment: as above
[12] = target: Fes (UniProt P07332); experiment: as above
Fes, sequence (P07332 whole entry, looked up): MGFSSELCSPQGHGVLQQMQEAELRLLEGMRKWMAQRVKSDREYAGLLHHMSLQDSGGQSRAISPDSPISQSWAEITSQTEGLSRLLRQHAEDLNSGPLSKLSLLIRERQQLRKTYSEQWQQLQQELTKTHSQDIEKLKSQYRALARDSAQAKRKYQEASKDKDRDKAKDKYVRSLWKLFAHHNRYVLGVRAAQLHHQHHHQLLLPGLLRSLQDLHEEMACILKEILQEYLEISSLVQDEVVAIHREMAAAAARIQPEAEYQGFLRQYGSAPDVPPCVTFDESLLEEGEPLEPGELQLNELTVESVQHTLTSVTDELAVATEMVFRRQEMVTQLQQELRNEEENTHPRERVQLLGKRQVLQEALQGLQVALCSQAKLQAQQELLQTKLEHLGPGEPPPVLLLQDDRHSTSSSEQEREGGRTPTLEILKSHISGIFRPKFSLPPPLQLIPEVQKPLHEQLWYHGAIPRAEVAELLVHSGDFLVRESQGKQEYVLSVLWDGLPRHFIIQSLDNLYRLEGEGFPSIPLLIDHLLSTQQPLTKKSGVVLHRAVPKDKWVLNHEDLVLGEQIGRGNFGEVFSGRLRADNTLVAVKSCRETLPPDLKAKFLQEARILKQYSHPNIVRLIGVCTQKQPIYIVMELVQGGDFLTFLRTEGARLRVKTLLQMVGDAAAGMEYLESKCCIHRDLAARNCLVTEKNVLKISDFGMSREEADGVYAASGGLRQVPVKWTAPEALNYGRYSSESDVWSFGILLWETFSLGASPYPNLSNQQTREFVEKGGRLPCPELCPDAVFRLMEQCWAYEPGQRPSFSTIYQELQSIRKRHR

[13] = target: FGFR1 (UniProt P11362); experiment: as above
FGFR1, sequence (P11362 whole entry, looked up): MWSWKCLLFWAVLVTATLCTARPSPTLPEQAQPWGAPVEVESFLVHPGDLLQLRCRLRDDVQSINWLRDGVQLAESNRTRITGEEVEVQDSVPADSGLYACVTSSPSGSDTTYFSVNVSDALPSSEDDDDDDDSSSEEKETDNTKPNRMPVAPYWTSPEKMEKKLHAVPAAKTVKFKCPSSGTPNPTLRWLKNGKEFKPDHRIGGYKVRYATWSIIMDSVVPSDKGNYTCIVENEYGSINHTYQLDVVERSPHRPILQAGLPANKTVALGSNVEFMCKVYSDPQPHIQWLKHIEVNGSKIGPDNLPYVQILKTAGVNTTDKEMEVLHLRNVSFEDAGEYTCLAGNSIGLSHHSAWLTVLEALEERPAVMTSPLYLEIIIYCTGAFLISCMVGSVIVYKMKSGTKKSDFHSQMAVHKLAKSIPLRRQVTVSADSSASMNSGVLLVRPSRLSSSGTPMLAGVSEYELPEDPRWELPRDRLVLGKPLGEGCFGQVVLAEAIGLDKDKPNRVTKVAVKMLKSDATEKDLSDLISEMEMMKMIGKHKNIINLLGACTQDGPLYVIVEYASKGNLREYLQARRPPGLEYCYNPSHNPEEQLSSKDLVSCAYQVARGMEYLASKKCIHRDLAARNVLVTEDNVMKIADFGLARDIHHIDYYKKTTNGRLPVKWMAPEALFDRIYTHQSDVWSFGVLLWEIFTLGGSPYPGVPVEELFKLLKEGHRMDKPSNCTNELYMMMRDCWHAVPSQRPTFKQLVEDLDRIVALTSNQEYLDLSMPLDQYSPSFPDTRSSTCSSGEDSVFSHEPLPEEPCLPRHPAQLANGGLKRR

[14] = system: c-Src; experiment: as above
[15] = target: MERTK (UniProt Q12866); experiment: as above
MERTK, sequence (Q12866 whole entry, looked up): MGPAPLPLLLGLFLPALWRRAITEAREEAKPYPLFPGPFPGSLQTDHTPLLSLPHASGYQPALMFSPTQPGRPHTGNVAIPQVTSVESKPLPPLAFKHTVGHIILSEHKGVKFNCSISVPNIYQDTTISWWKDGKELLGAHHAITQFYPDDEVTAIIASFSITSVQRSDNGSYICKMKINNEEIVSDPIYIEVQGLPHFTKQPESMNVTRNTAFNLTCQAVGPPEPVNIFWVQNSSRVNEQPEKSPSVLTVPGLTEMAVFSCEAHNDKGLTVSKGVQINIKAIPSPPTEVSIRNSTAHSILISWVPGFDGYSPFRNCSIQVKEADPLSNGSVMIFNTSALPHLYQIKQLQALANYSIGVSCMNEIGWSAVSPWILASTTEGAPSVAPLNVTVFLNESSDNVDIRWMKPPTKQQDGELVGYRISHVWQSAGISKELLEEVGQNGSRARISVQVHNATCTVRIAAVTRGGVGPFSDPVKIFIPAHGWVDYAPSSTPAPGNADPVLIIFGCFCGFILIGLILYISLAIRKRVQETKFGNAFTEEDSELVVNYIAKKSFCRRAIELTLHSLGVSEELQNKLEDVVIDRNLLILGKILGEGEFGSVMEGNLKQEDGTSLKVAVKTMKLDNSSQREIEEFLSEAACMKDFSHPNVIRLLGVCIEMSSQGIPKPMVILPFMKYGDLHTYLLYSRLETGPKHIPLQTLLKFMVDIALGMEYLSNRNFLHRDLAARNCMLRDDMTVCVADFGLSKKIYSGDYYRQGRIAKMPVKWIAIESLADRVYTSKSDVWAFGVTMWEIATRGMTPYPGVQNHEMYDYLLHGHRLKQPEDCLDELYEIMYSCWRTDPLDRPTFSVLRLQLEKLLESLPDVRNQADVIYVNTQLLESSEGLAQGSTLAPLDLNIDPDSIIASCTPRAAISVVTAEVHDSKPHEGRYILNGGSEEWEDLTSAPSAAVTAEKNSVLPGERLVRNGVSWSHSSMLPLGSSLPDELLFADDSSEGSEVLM

[16] = system: Fer (mouse); experiment: as above
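For SH2 binding enrichment of the phosphorylated peptide, bacterial display in this document: peptide library displayed on the E. coli surface as eCPX fusions, selected cells deep-sequenced, score is each peptide's frequency after selection divided by its frequency in the input.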
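For phosphorylation enrichment, bacterial display in this document: 11-residue human phosphosite peptides and single-mutation variants displayed on the E. coli surface, counted by deep sequencing, each peptide's frequency after selection divided by its frequency in the unselected input library; frequency after pTyr selection over input frequency; kinase dosed for 20-30% of maximal phosphorylation in three min.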

| SH2 binding enrichment [1] | SH2 binding enrichment [2] | SH2 binding enrichment [3] | Sequence | phosphorylation enrichment [4] | phosphorylation enrichment [5] | phosphorylation enrichment [6] | phosphorylation enrichment [7] | phosphorylation enrichment [8] | phosphorylation enrichment [9] | phosphorylation enrichment [10] | phosphorylation enrichment [11] | phosphorylation enrichment [12] | phosphorylation enrichment [13] | phosphorylation enrichment [14] | phosphorylation enrichment [15] | phosphorylation enrichment [16] |
| --- | --- | --- | --- | --- | --- | --- | --- | --- | --- | --- | --- | --- | --- | --- | --- | --- |
| 0.638 | 0.393 | 0.967 | SASSSYSRSRS [SRRM4_Y549_R547S] | 0.275 | 0.412 | 0.451 | 0.462 | 0.487 | 0.46 | 0.408 | 0.555 | 0.482 | 0.378 | 0.432 | 0.447 | 0.386 |
| 0.612 | 0.395 | 0.711 | YGSSSSGGAGG [RPA2_Y14_Y14S] | 0.304 | 0.359 | 0.392 | 0.389 | 0.461 | 0.347 | 0.317 | 0.604 | 0.535 | 0.403 | 0.337 | 0.355 | 0.437 |
| 1.65 | 1.38 | 0.744 | FGLQAYTKVKT [ALDH2_Y502_E504K_YF] | 0.763 | 0.513 | 1.33 | 0.546 | 0.644 | 0.877 | 0.799 | 1.12 | 1.23 | 0.472 | 0.442 | 0.447 | 0.476 |
| 0.614 | 0.895 | 0.76 | GIADDYDKKKP [EIF1_Y54_L59P] | 0.425 | 0.381 | 0.909 | 0.418 | 0.502 | 0.636 | 0.648 | 1.01 | 0.998 | 0.501 | 0.436 | 0.378 | 0.389 |
| 0.661 | 0.43 | 0.829 | YRQNVYIPGSN [PCDHGA1_Y895] | 0.421 | 0.435 | 0.576 | 0.435 | 0.429 | 0.519 | 0.531 | 0.564 | 0.626 | 0.427 | 0.454 | 0.424 | 0.405 |
| 0.763 | 0.507 | 0.771 | VNNAVYGIDAM [EIF3J_Y143] | 0.417 | 0.829 | 0.764 | 1.09 | 0.437 | 0.502 | 0.509 | 0.86 | 0.88 | 0.506 | 1 | 0.426 | 0.486 |
| 0.83 | 0.479 | 0.79 | AKKIKYFEGVS [PRKDC_Y682] | 0.324 | 0.447 | 0.427 | 0.321 | 0.44 | 0.332 | 0.328 | 0.429 | 0.547 | 0.295 | 0.387 | 0.383 | 0.42 |
| 0.981 | 0.761 | 0.971 | PTTKTYFPHFH [HBA1_Y43_D48H] | 0.457 | 0.688 | 0.951 | 0.598 | 0.399 | 0.559 | 0.676 | 0.721 | 1.14 | 0.602 | 0.655 | 0.605 | 0.496 |
| 0.828 | 0.578 | 0.899 | RGFDTYFGFLL [ARSB_Y165_YF] | 4.25 | 6.53 | 4.64 | 8.78 | 4.31 | 3.25 | 1.14 | 1.68 | 1.53 | 3.4 | 6.93 | 5.24 | 4.06 |
| 0.567 | 0.473 | 0.711 | NDKLRYEVSSP [CDH13_Y66] | 0.473 | 0.502 | 0.884 | 0.421 | 0.502 | 0.615 | 0.692 | 1.14 | 1.01 | 0.475 | 0.438 | 0.451 | 0.443 |
| 0.975 | 0.716 | 0.802 | SILAVYSKDNF [PANK2_Y400_YF] | 0.58 | 0.872 | 0.867 | 0.862 | 0.76 | 0.709 | 0.522 | 0.868 | 1.69 | 0.662 | 1.94 | 0.995 | 0.438 |
| 0.747 | 0.415 | 0.852 | SVTGTYSPALN [TP53_Y126_C124G] | 0.419 | 0.621 | 0.835 | 0.584 | 0.424 | 0.593 | 0.717 | 0.661 | 0.769 | 0.394 | 0.549 | 0.444 | 0.434 |
| 0.672 | 0.603 | 0.895 | CPYNLYAAQLS [HGD_Y40_E42A] | 4.48 | 3.08 | 0.917 | 3.15 | 4.3 | 0.939 | 0.857 | 1.28 | 1.13 | 0.815 | 6.42 | 5.62 | 3.49 |
| 0.662 | 0.476 | 0.957 | QEGPEYWDGET [HLA-A_Y83_Q86G] | 0.739 | 0.712 | 1.67 | 0.712 | 0.786 | 1.25 | 0.964 | 1.73 | 1.71 | 0.839 | 0.554 | 0.627 | 0.788 |
| 0.61 | 0.407 | 0.711 | SQPASYQRRFL [PPIG_Y320_L324F] | 0.38 | 0.492 | 0.631 | 0.425 | 0.579 | 0.439 | 0.599 | 0.768 | 0.667 | 0.472 | 0.466 | 0.505 | 0.364 |
| 0.761 | 0.482 | 0.912 | KEELAYLKKNH [KRT14_Y248] | 0.413 | 0.541 | 0.512 | 0.395 | 0.422 | 0.515 | 0.528 | 0.597 | 0.742 | 0.451 | 0.35 | 0.333 | 0.375 |

From the supplement of paper PMC10065799, “High-throughput profiling of sequence recognition by tyrosine kinases and SH2 domains using bacterial peptide display” (eLife, 2023)
